Data: patent US20250382334

Assays:
[1] = biological target: v2.2 BE-VLP MMLV gag-ABE8e fusion protein (cleavable linker VQALVLTQ)
[2] = biological target: v2.4 BE-VLP MMLV gag-ABE8e fusion protein (cleavable linker […])
[3] = biological target: v2.1 BE-VLP MMLV gag-ABE8e fusion protein (cleavable linker …)
[4] = biological target: v2.3 BE-VLP MMLV gag-ABE8e fusion protein (cleavable linker […])

B1: Moloney murine leukemia virus (MMLV) protease, supplied as wild-type MMLV gag-pro-pol polyprotein (protein)
chain: TLDDQGGQGQEPPPEPRITLKVGGQPVTFLVDTGAQHSVLTQNPGPLSDKSAWVQGATGGKRYRWTTDRKVHLATGKVTHSFLHVPDCPYPLLGRDLLTKLKAQIHFEGSGAQVMGPMGQPLQVL
fraction of cleaved ABE8e versus full-length gag-ABE8e present in purified eVLPs (western blot) [1]: the v2.4 linker is cleaved more efficiently than the v2.1 and v2.2 linkers, but less efficiently than the v2.3 linker
fraction of cleaved ABE8e versus full-length gag-ABE8e present in purified eVLPs (western blot) [2]: the v2.4 linker is cleaved more efficiently than the v2.1 and v2.2 linkers, but less efficiently than the v2.3 linker
fraction of cleaved ABE8e versus full-length gag-ABE8e present in purified eVLPs (western blot) [3]: the v2.4 linker is cleaved more efficiently than the v2.1 and v2.2 linkers, but less efficiently than the v2.3 linker
fraction of cleaved ABE8e versus full-length gag-ABE8e present in purified eVLPs (western blot) [4]: the v2.4 linker is cleaved more efficiently than the v2.1 and v2.2 linkers, but less efficiently than the v2.3 linker
